Specific Activity data for four proteins are collected here from US20240262879.

Data set [1] deals with Control (peptide of Table 12).
The next data set deals with T1, Peptide 5 (GPLGVRG).
T1 chain: GPLGVRG

B1: rhMMP7 (protein)
chain: YSLFPNSPKWTSKVVTYRIVSYTRDLPHITVDRLVSKALNMWGKEIPLHFRKVVWGTADIMIGFARGAHGDSYPFDGPGNTLAHAFAPGTGLGGDAHFDEDERWTDGSSLGINFLYAATHELGHSLGMGHSSDPNAVMYPTYGNGDPQNFKLSQDDIKGIQKLYGKRSNSRKK
Consider B1, for which the Specific Activity in data set [1] was 10 pmol/min/µg; with Peptide 8 it was 70.9 pmol/min/µg; in the data set with Peptide 5 (GPLGVRG) it was 10 pmol/min/µg; with Peptide 10 it was 98.4 pmol/min/µg.

B2: rhMMP1 (protein)
chain: FVLTEGNPRWEQTHLTYRIENYTPDLPRADVDHAIEKAFQLWSNVTPLTFTKVSEGQADIMISFVRGDHRDNSPFDGPGGNLAHAFQPGPGIGGDAHFDEDERWTNNFREYNLHRVAAHELGHSLGLSHSTDIGALMYPSYTFSGDVQLAQDDIDGIQAIYGRSQNPVQPIGPQTPKACDSKLTFDAITTIRGEVMFFKDRFYMRTNPFYPEVELNFISVFWPQLPNGLEAAYEFADRDEVRFFKGNKYWAVQGQNVLHGYPKDIYSSFGFPRTVKHIDAALSEENTGKTYFFVANKYWRYDEYKRSMDPGYPKMIAHDFPGIGHKVDAVFMKDGFFYFFHGTRQYKFDPKTKRILTLQKANSWFNCRKN
Regarding B2, the Specific Activity worked out at 10 pmol/min/µg in data set [1], 10.8 pmol/min/µg with Peptide 8, 10 pmol/min/µg with Peptide 5 (GPLGVRG) and 10 pmol/min/µg with Peptide 10.

B3: rmMMP9 (protein)
chain: FQTFKGLKWDHHNITYWIQNYSEDLPRDMIDDAFARAFAVWGEVAPLTFTRVYGPEADIVIQFGVAEHGDGYPFDGKDGLLAHAFPPGAGVQGDAHFDDDELWSLGKGVVIPTYYGNSNGAPCHFPFTFEGRSYSACTTDGRNDGTPWCSTTADYDKDGKFGFCPSERLYTEHGNGEGKPCVFPFIFEGRSYSACTTKGRSDGYRWCATTANYDQDKLYGFCPTRVDATVVGGNSAGELCVFPFVFLGKQYSSCTSDGRRDGRLWCATTSNFDTDKKWGFCPDQGYSLFLVAAHEFGHALGLDHSSVPEALMYPLYSYLEGFPLNKDDIDGIQYLYGRGSKPDPRPPATTTTEPQPTAPPTMCPTIPPTAYPTVGPTVGPTGAPSPGPTSSPSPGPTGAPSPGPTAPPTAGSSEASTESLSPADNPCNVDVFDAIAEIQGALHFFKDGWYWKFLNHRGSPLQGPFLTARTWPALPATLDSAFEDPQTKRVFFFSGRQMWVYTGKTVLGPRSLDKLGLGPEVTHVSGLLPRRLGKALLFSKGRVWRFDLKSQKVDPQSVIRVDKEFSGVPWNSHDIFQYQDKAYFCHGKFFWRVSFQNEVNKVDHEVNQVDDVGYVTYDLLQCP
Consider B3, for which the Specific Activity in data set [1] came to 10 pmol/min/µg; with Peptide 8, 158 pmol/min/µg; in the data set with Peptide 5 (GPLGVRG), 292 pmol/min/µg; with Peptide 10, 111 pmol/min/µg.

B4: rhMMP2 (protein)
chain: YNFFPRKPKWDKNQITYRIIGYTPDLDPETVDDAFARAFQVWSDVTPLRFSRIHDGEADIMINFGRWEHGDGYPFDGKDGLLAHAFAPGTGVGGDSHFDDDELWTLGEGQVVRVKYGNADGEYCKFPFLFNGKEYNSCTDTGRSDGFLWCSTTYNFEKDGKYGFCPHEALFTMGGNAEGQPCKFPFRFQGTSYDSCTTEGRTDGYRWCGTTEDYDRDKKYGFCPETAMSTVGGNSEGAPCVFPFTFLGNKYESCTSAGRSDGKMWCATTANYDDDRKWGFCPDQGYSLFLVAAHEFGHAMGLEHSQDPGALMAPIYTYTKNFRLSQDDIKGIQELYGASPDIDLGTGPTPTLGPVTPEICKQDIVFDGIAQIRGEIFFFKDRFIWRTVTPRDKPMGPLLVATFWPELPEKIDAVYEAPQEEKAVFFAGNEYWIYSASTLERGYPKPLTSLGLPPDVQRVDAAFNWSKNKKTYIFAGDKFWRYNEVKKKMDPGFPKLIADAWNAIPDNLDAVVDLQGGGHSYFFKGAYYLKLENQSLKSVKFGSIKSDWLGC
Consider B4, for which the Specific Activity in data set [1] amounted to 10 pmol/min/µg; with Peptide 8 it was 260 pmol/min/µg; with Peptide 5 (GPLGVRG), 260 pmol/min/µg; in the data set with Peptide 10, 163 pmol/min/µg.
